# Results: patent publication US20220064310A1 (DEVELOPMENT CENTER FOR BIOTECHNOLOGY, published 2022)
# Assays:
# [1] = target: T1, CSF-1R-ECD-human Fc (in house) (human, UniProt P07333 20-512); assay: ELISA, coated CSF1R-ECD-hFc 1 ug/ml, anti-kappa HRP, one site specific binding fit (GraphPad Prism)
# T1 construct: In-house fusion; also called CSF-1R-ECD-hFc; CSF1R-ECD-hFc; not shown: human Fc
# Experimental: (§1) To know the binding affinity differences among individual antibodies, ELISA method was used. ELISA plate was coated with 1 μg/ml of CSF1R-ECD-hFc, then add assay antibodies diluted from 50 nM to 1×10⁻⁵ nM (5-10× fold dilution). Assay was measured by adding anti-kappa HRP secondary antibody (1:5000 dilution). Binding curve and KD were determined with GraphPad Prism software using one site-specific binding for nonlinear fit methods. […] This loss of avidity was recovered by back mutations, as evidenced by humanized antibodies B1-Hu, B2-Hu, B1-B1, and B2-B1 clones. (See FIG. 11 and FIG. 12).
# [2] = target: T1, CSF-1R-ECD-human Fc (in house); assay: ELISA, CSF1R-ECD-hFc coated at 1 ug/ml, anti-kappa HRP, one site-specific binding fit
# Experimental: as §1
# [3] = target: T1, CSF-1R-ECD-human Fc (in house); assay: ELISA, coated CSF1R-ECD-hFc 1 ug/ml, anti-kappa HRP, OD450
# Experimental: as §1
# [4] = target: T1, CSF-1R-ECD-human Fc (in house); assay: ELISA, CSF1R-ECD-hFc coated at 1 ug/ml, anti-kappa HRP
# Experimental: as §1
# T1 sequence (P07333 20-512): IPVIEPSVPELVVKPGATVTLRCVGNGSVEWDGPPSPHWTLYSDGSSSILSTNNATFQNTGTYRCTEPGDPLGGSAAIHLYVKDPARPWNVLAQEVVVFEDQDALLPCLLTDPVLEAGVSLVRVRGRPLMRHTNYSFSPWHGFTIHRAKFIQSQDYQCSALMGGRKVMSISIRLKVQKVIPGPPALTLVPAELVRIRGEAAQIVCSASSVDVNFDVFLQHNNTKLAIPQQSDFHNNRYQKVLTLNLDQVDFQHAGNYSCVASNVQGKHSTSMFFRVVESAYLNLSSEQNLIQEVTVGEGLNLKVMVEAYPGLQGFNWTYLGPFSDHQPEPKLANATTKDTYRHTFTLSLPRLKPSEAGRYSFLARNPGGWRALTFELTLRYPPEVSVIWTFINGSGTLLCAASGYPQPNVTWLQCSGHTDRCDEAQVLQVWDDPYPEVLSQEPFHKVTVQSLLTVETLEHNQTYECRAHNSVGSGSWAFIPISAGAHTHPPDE
Binder,Bmax [1],Kd [2] [nM],other results
"M-M(IgG4) (antibody, V domains shown, an IgG1 and an IgG4 form) VH: EVQLQQSGPELEKPGASVKISCKASGYSFTGYNMNWVKQSNGKSLEWIGNIDPYYGGTTYNQKFKGKATLTVDKSSSTAYMQLKSLTSEDSAVYYCARRGDYSGSSYWYFDVWGAGTTVTVSS VL: DIQMTQSSSYLSVSLGGRVTITCKASDHINNWLAWYQQKPGNAPRLLISGATSLETGVPSRFSGSGSGKDYTLSITSLQTEDVVTYYCQQYWSTPFTFGSGTKLEIK",3.2,,
"AB21 M-M (mouse heavy chain variable region with mouse light chain variable region, recombinant) (antibody, V domains shown) VH: EVQLQQSGPELEKPGASVKISCKASGYSFTGYNMNWVKQSNGKSLEWIGNIDPYYGGTTYNQKFKGKATLTVDKSSSTAYMQLKSLTSEDSAVYYCARRGDYSGSSYWYFDVWGAGTTVTVSS VL: DIQMTQSSSYLSVSLGGRVTITCKASDHINNWLAWYQQKPGNAPRLLISGATSLETGVPSRFSGSGSGKDYTLSITSLQTEDVVTYYCQQYWSTPFTFGSGTKLEIK",,0.0936,
"B1-Hu(IgG4) (antibody, V domains shown, an IgG1 and an IgG4 form) VH: EVQLVQSGAEVKKPGATVKISCKVSGYSFTGYNMNWVQQAPGKGLEWMGNIDPYYGGTTYNQKFKGKATLTVDKSTSTAYMELSSLRSEDTAVYYCARRGDYSGSSYWYFDVWGQGTLVTVSS VL: DIQMTQSPSSLSASVGDRVTITCKASDHINNWLAWYQQKPGKAPKLLLYGATSLETGVPSRFSGSGSGTDYTLTISSLQPEDFATYYCQQYWSTPFTFGQGTKVEIK",3.19,,
"B1-Hu(IgG1) (antibody, V domains shown, an IgG1 and an IgG4 form) VH: EVQLVQSGAEVKKPGATVKISCKVSGYSFTGYNMNWVQQAPGKGLEWMGNIDPYYGGTTYNQKFKGKATLTVDKSTSTAYMELSSLRSEDTAVYYCARRGDYSGSSYWYFDVWGQGTLVTVSS VL: DIQMTQSPSSLSASVGDRVTITCKASDHINNWLAWYQQKPGKAPKLLLYGATSLETGVPSRFSGSGSGTDYTLTISSLQPEDFATYYCQQYWSTPFTFGQGTKVEIK",,,EC50 (read off the curve) [3]: ~0.04 nM
"humanized AB21 B1-Hu (AB21 VHB1 with Hu AB21 VL) (antibody, V domains shown, Human IgG from vector pTCAE8-AB21 in FreeStyle 293 cells, kappa light chain; also called heavy chain B1 combined with light chain Hu) VH: EVQLVQSGAEVKKPGATVKISCKVSGYSFTGYNMNWVQQAPGKGLEWMGNIDPYYGGTTYNQKFKGKATLTVDKSTSTAYMELSSLRSEDTAVYYCARRGDYSGSSYWYFDVWGQGTLVTVSS VL: DIQMTQSPSSLSASVGDRVTITCKASDHINNWLAWYQQKPGKAPKLLLYGATSLETGVPSRFSGSGSGTDYTLTISSLQPEDFATYYCQQYWSTPFTFGQGTKVEIK",,0.0958,
"humanized AB21 B2-Hu (Hu AB21 VHB2 with Hu AB21 VL) (antibody, V domains shown, Human IgG from vector pTCAE8-AB21 in FreeStyle 293 cells, kappa light chain) VH: EVQLVQSGAEVKKPGASVKISCKVSGYSFTGYNMNWVKQAPGKGLEWIGNIDPYYGGTTYNQKFKGKATLTVDKSTSTAYMELSSLRSEDTAVYYCARRGDYSGSSYWYFDVWGQGTLVTVSS VL: DIQMTQSPSSLSASVGDRVTITCKASDHINNWLAWYQQKPGKAPKLLLYGATSLETGVPSRFSGSGSGTDYTLTISSLQPEDFATYYCQQYWSTPFTFGQGTKVEIK",3.17,,EC50 (read off the curve) [3]: ~0.08 nM
"humanized AB21 Hu-Hu (Hu AB21 VH with Hu AB21 VL), the initial humanized antibody (antibody, V domains shown, Human IgG from vector pTCAE8-AB21 in FreeStyle 293 cells, kappa light chain (anti-kappa HRP detection); also called heavy chain Hu combined light chain Hu) VH: EVQLVQSGAEVKKPGATVKISCKVSGYSFTGYNMNWVQQAPGKGLEWMGNIDPYYGGTTYNQKFKGRVTITADTSTDTAYMELSSLRSEDTAVYYCATRGDYSGSSYWYFDVWGQGTLVTVSS VL: DIQMTQSPSSLSASVGDRVTITCKASDHINNWLAWYQQKPGKAPKLLLYGATSLETGVPSRFSGSGSGTDYTLTISSLQPEDFATYYCQQYWSTPFTFGQGTKVEIK",,83,fold lower affinity than the original mouse antibody (M-M) [4]: ~1000 fold
"humanized AB21 B1-B1 (AB21 VHB1 with AB21 VLB1) (antibody, V domains shown, Human IgG from vector pTCAE8-AB21 in FreeStyle 293 cells, kappa light chain; also called heavy chain B1 combined with light chain B1) VH: EVQLVQSGAEVKKPGATVKISCKVSGYSFTGYNMNWVQQAPGKGLEWMGNIDPYYGGTTYNQKFKGKATLTVDKSTSTAYMELSSLRSEDTAVYYCARRGDYSGSSYWYFDVWGQGTLVTVSS VL: DIQMTQSPSSLSASLGDRVTITCKASDHINNWLAWYQQKPGKAPKLLLSGATSLETGVPSRFSGSGSGTDYTLTISSLQPEDFATYYCQQYWSTPFTFGQGTKVEIK",,0.0558,
